The assay addresses Native (wild-type) human factor VIIa (human) (UniProt P08709). Nature of the assay: cell-based or functional assay.
Sequence of UniProt P08709 (P08709 213-466, chain 2 of 2, other chains not shown): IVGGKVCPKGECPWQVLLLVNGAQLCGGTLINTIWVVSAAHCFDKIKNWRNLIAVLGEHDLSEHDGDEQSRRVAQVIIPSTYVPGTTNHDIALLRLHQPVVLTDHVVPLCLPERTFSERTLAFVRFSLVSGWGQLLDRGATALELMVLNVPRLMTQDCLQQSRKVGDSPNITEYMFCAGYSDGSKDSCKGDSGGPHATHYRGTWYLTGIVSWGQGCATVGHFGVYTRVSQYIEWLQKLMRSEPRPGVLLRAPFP

As to “Antithrombin III (ATIII) (from UniProt P01008 33-464)”, the Relative first-order rate constants (ratio) of ATIII inhibition (ratio to wt-Factor VIIa) worked out at 1.

The values above are taken from patent publication US20150044195A1.
